Test results taken from paper doi:10.1101/2024.12.31.630886.

What was measured:
[1] = target: IatT, GCN5-related N-acetyltransferase (GNAT) of the iat lasso peptide BGC (Actinosynnema mirum DSM 43827); assay: cryo-EM structure
[2] = target: IatT, GCN5-related N-acetyltransferase (GNAT) of the iat lasso peptide BGC (Actinosynnema mirum DSM 43827); assay: ITC

| Substance | stoichiometry N [1] | stoichiometry N (molar equivalent) [2] |
| --- | --- | --- |
| IatT, GCN5-related N-acetyltransferase (GNAT) of the iat lasso peptide BGC (enzyme) | 14 |  |
| mirusin B (compound 2), monoacetylated lasso peptide |  | 1 |
| mirusin C (compound 3), diacetylated lasso peptide |  | 1 |
